Experimental data published in patent publication US20070020258A1.

Target: membrane IgE on U266 B1 cells (human) (UniProt P01854)
Assay: FACS, U266 B1 cells

B1: MAE11 (antibody, V domains shown)
VH: DVQLQESGPGLVKPSQSLSLACSVTGYSITSGYSWNWIRQFPGNKLEWMGSITYDGSSNYNPSLKNRISVTRDTSQNQFFLKLNSATAEDTATYYCARGSHYFGHWHFAVWGAGTTVTVSS
VL: DIVLTQSPASLAVSLGQRATISCKASQSVDYDGDSYMNWYQQKPGQPPILLIYAASYLGSEIPARFSGSGSGTDFTLNIHPVEEEDAATFYCQQSHEDPYTFGAGTKLEIK
  EC50: 0.15 µg/mL

B2: MAE13 (antibody, V domains shown)
VH: DVQLQESGPGLVKPSQSLSLTCTVTGYTITSDNAWNWIRQFPGNKLEWMGYINHSGTTSYNPSLKSRISITRDTSKNQFFLQLNSVTTEDTATYYCAWVVAYAMDYWGQGTSVTVSS
VL: DIVMTQSQKFMSTSVGDRVSVTCKASQNVSSNVAWYQQKPGQSPKALIYSASYRYSGVPDRFTGSGSGTDFTLTISNVQSEDLAEYFCQQYYTYPLYTFGGGTKLEIKR
  EC50: 1 µg/mL

B3: MAE15 (antibody, V domains shown)
VH: DVQHQESEPDLVKPSQSLSLTCTVTGYSITSGYNRHWIRQFPGNKLEWMGYIHYSGSTNYNPSLKRRISITRDTSKNQFFLQLNSVTTEDTATYYCARGSIYYYGSRYRYFDVWGAGTTVTVSS
VL: DIQLTQSPASLAVSLGQRATISCKASQSVDYDGDSYMNWYQQKPGQPPKLLIYAASNLESGIPARFSGSGSGTDFTLNIHPVEEEDAATYYCQQSNEDPFTFGAGT
  EC50: 6 µg/mL
